Molecular target: T1, factor Xa (UniProt P00742 41-179; P00742 235-488, limits assumed)
T1 construct: Bought enzyme; The active enzyme has a light and a heavy chain cut from that precursor; also called FXa
Assay: discontinuous chromogenic substrate assay of FXa inhibition with pentasaccharide, against plasma AT
Method: The pentasaccharide is added in excess in the reaction media so that every tested antithrombin is bound to the pentasaccharide. In the absence of pentasaccharide, polybrene (100 μg/ml final) is added in order to neutralize any sulfated glycosaminoglycan that may be present in the reaction media. […] The analysis of the data is performed using the GraphPad Prism version 3 software. Absorbance recording is continuous or discontinuous according to the expected inhibition rate constant (kon).
When the expected kon is lower than 10⁴ M⁻¹.s⁻¹ the discontinuous method is used. […] At the end of this incubation period, 190 μl of kinetic buffer containing 200 μM substrate is added and absorbance at 405 nm is recorded.

T1 sequence (P00742 41-179 limits assumed, form in doubt, chain 1 of 2): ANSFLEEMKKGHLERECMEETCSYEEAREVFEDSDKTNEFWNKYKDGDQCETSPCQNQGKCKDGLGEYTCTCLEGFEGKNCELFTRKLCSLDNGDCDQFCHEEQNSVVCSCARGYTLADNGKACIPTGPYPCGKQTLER
T1 sequence (P00742 235-488 limits assumed, form in doubt, chain 2 of 2): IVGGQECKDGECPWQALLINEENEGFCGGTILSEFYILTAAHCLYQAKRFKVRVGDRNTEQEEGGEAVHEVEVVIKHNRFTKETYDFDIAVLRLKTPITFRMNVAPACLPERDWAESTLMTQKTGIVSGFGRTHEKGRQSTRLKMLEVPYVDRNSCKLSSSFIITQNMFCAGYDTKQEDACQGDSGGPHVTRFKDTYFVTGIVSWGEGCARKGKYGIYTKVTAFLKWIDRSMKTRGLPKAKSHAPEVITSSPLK

B1: AT-N135Q-Pro394 (other)
chain: HGSPVDICTAKPRDIPMNPMCIYRSPEKKATEDEGSEQKIPEATNRRVWELSKANSRFATTFYQHLADSKNDNDNIFLSPLSISTAFAMTKLGACNDTLQQLMEVFKFDTISEKTSDQIHFFFAKLNCRLYRKAQKSSKLVSANRLFGDKSLTFNETYQDISELVYGAKLQPLDFKENAEQSRAAINKWVSNKTEGRITDVIPSEAINELTVLVLVNTIYFKGLWKSKFSPENTRKELFYKADGESCSASMMYQEGKFRYRRVAEGTQVLELPFKGDDITMVLILPKPEKSLAKVEKELTPEVLQEWLDELEEMMLVVHMPRFRIEDGFSLKEQLQDMGLVDLFSPEKSKLPGIVAEGRDDLYVSDAFHKAFLEVNEEGSEAAASTAVVIAGRPSLNPNRVTFKANRPFLVFIREVPLNTIIFMGRVANPCVK
  fold lower kon than plasma AT: ≥ 7600 fold
